Experiment [1] addresses COMA complex (Ame1/Okp1/Ctf19/Mcm21) (S. cerevisiae (budding yeast), UniProt P38313;P53298;Q02732;Q06675). Put plainly: cross-linking.
Experiment [2] has as its target Ctf19/Mcm21 heterodimer (wild type) (S. cerevisiae (budding yeast), UniProt Q02732;Q06675). Put plainly: pull-down.

Sequence of COMA complex (Ame1/Okp1/Ctf19/Mcm21) (P38313 whole entry, chain 1 of 4): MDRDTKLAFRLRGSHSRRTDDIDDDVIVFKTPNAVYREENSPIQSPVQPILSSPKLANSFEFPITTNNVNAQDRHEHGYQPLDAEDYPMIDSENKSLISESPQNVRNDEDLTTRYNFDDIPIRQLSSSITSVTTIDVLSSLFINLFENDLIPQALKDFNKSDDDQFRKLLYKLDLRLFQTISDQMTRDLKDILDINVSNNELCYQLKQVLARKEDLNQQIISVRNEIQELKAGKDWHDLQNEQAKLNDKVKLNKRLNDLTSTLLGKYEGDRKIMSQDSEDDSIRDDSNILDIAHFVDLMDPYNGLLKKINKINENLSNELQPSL
Sequence of COMA complex (Ame1/Okp1/Ctf19/Mcm21) (P53298 whole entry, chain 2 of 4): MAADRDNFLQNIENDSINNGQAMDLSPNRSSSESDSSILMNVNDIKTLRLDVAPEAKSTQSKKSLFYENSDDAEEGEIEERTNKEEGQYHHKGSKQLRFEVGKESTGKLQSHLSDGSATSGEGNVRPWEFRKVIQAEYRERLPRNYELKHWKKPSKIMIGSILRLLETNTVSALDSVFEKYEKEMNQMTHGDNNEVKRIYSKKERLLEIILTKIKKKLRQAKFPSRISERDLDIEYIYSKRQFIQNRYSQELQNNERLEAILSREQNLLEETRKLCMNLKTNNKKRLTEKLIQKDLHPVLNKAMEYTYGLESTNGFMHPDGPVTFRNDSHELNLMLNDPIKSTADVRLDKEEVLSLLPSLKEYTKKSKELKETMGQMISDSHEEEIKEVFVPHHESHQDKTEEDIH
Sequence of COMA complex (Ame1/Okp1/Ctf19/Mcm21) (Q02732 whole entry, chain 3 of 4): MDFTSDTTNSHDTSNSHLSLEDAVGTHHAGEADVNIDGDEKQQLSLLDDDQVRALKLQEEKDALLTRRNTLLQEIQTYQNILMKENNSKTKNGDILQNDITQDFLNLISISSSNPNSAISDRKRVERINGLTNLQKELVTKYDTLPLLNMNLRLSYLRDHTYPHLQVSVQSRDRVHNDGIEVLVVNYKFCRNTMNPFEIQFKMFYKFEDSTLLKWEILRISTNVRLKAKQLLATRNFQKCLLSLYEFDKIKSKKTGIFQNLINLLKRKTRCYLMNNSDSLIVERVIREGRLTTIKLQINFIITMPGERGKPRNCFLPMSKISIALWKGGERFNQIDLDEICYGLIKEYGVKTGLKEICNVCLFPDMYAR
Sequence of COMA complex (Ame1/Okp1/Ctf19/Mcm21) (Q06675 whole entry, chain 4 of 4): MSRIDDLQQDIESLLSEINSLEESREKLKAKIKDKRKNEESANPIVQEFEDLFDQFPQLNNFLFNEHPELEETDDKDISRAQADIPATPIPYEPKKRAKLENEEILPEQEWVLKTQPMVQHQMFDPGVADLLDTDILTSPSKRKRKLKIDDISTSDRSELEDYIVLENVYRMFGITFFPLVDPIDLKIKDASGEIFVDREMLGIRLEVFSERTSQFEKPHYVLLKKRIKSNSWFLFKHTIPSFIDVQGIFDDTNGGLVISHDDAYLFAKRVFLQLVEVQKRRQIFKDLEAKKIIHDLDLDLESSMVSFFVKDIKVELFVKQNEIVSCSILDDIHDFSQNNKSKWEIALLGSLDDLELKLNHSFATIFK
Sequence of Ctf19/Mcm21 heterodimer (wild type) (Q02732 whole entry, chain 1 of 2): as the sequence (Q02732 whole entry, chain 3 of 4) above
Sequence of Ctf19/Mcm21 heterodimer (wild type) (Q06675 whole entry, chain 2 of 2): as the sequence (Q06675 whole entry, chain 4 of 4) above

B1: Sli15-2xStrep/Ipl1 (wild type, not phosphorylated) (complex)
chain 1: MDWAIKAARKKTQRKPGSTRSIIETLDDLNNLTTDAHSEINQRLYESSEWLRNNVYMNTLKYEDKKMEESLISPENTHNKMDVEFPKMKGEYELSNSQNDAAKDVTKTPRNGLHNDKSITPKSLRRKEVTEGMNRFSIHDTNKSPVEPLNSVKVDANESEKSSPWSPYKVEKVLRESSKTSESPINTKRFDNQTWAAKEEMENEPILQALKKAESVKVKPPPNSGIARSQRRSNMFVPLPNKDPLIIQHIPPTKSSGSIPKVRTVKESPIAFKKKSTINSPAIRAVENSDTAGSTKASSVFDRLSSIPTKSFENKISRGNVGHKYSSSSIDLTGSPMKKVSQKFKSINSTDTDMQEALRDIFSVKNKITKNNSPKGKNSRKSSIPRFDKTSLKLTTHKKLAIIAEQKKKSKHSSDVHKTGSRPHSISPTKISVDSSSPSKEVKNYYQSPVRGYLRPTKASISPNKNKNLTTSQTPHRLKIKEKTLRKLSPNIADISKPESRKSKNYRLTNLQLLPPAEAERDDLKKKFDKRLSGIMRSQQEHHRRKQEKQKRMSHLEQDLKKQTSFSNDYKDIRLKESLAPFDNHVRDTINKNTAFSTDNILATINTVDHREIIGNVTPKIASVNDSLPEINTDSEDEASVTLAAWAKSPYLQEQLIRQQDINPQTIFGPIPPLHTDEIFPNPRLNRLKPRQIVPKRS
chain 2: MQRNSLVNIKLNANSPSKKTTTRPNTSRINKPWRISHSPQQRNPNSKIPSPVREKLNRLPVNNKKFLDMESSKIPSPIRKATSSKMIHENKKLPKFKSLSLDDFELGKKLGKGKFGKVYCVRHRSTGYICALKVMEKEEIIKYNLQKQFRREVEIQTSLNHPNLTKSYGYFHDEKRVYLLMEYLVNGEMYKLLRLHGPFNDILASDYIYQIANALDYMHKKNIIHRDIKPENILIGFNNVIKLTDFGWSIINPPENRRKTVCGTIDYLSPEMVESREYDHTIDAWALGVLAFELLTGAPPFEEEMKDTTYKRIAALDIKMPSNISQDAQDLILKLLKYDPKDRMRLGDVKMHPWILRNKPFWENKRL
As for B1, the binding result in experiment [1] is given as “binds”.

B2: Sli15∆N2-370-2xStrep/Ipl1 (complex)
chain 1: MNNSPKGKNSRKSSIPRFDKTSLKLTTHKKLAIIAEQKKKSKHSSDVHKTGSRPHSISPTKISVDSSSPSKEVKNYYQSPVRGYLRPTKASISPNKNKNLTTSQTPHRLKIKEKTLRKLSPNIADISKPESRKSKNYRLTNLQLLPPAEAERDDLKKKFDKRLSGIMRSQQEHHRRKQEKQKRMSHLEQDLKKQTSFSNDYKDIRLKESLAPFDNHVRDTINKNTAFSTDNILATINTVDHREIIGNVTPKIASVNDSLPEINTDSEDEASVTLAAWAKSPYLQEQLIRQQDINPQTIFGPIPPLHTDEIFPNPRLNRLKPRQIVPKRS
chain 2: B1 chain 2
On to B2, for which the binding result in experiment [2] was “binds”.

Values taken from article doi:10.1101/444570 (bioRxiv, 2018).
